These results are taken from US20230052256A1 (DIZAL JIANGSU PHARMACEUTICAL, published 2023).

The target of test [1] is T1, human FGFR2b ECD fused with murine Fc (human).
T1 construct: The ELISA text says only 'recombinant human FGFR2b-Fc'; also called recombinant human FGFR2b-Fc; hu FGFR2b
T1 chain: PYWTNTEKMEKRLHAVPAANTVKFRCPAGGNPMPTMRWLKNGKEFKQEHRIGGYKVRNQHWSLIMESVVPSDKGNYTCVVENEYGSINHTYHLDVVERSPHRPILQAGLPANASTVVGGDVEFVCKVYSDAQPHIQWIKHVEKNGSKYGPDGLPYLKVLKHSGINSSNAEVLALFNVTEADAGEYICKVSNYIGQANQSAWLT
Nature of the test: ELISA, plate coated with human FGFR2b-Fc, anti-human IgG HRP. How it is done: (§1) The cross-species binding of Ab 26c to recombinant cyno, rat/mouse, and human FGFR2b-Fc fusion proteins was conducted with ELISA. In brief, 96-well ELISA plate were coated with about 100 μl/well 0.1 μg/ml recombinant human FGFR2b-Fc, recombinant rat/mouse FGFR2b-Fc, or recombinant cynomolgus FGFR2b-Fc protein in PBS overnight. Then the plate was blocked with 2% BSA in PBS with 0.05% Tween20 and incubation with antibody samples for 60 min at room temperature, and then washed twice in 1×TBST (Cell Signaling Technology, #9997) and followed by incubation with anti-human IgG HRP conjugate for 60 min at a room temperature. HRP activity was detected with tetra-methylbenzidine substrate (Cell Signaling Technology, #7004) and the reaction was stopped with stop solution (Cell Signaling Technology, #7002). The plate was read at 450 nm. […] Ab 26c has the highest binding affinity to rat/mouse FGFR2b, followed by human FGFR2b, and then cynomolgus FGFR2b.
A general note: An ELISA detects its analyte on a solid surface through an enzyme-linked reagent.

Test [2] concerns the target T2, recombinant human FGFR1b-Fc (R&D Systems) (human, UniProt P11362-19 22-376, limits assumed).
T2 construct: Bought from R&D Systems; also called hFGFR1b-Fc; not shown: human Fc of the bought fusion protein
T2 sequence (looked up): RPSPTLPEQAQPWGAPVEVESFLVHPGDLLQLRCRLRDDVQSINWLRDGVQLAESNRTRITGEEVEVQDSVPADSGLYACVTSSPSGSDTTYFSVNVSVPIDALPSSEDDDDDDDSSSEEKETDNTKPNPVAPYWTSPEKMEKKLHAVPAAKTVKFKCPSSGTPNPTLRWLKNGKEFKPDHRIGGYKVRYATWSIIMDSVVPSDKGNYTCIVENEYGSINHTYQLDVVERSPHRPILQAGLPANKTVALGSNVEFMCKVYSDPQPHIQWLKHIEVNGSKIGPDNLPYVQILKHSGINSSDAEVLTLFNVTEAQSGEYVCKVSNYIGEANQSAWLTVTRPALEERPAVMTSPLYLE
Description: SPR (Biacore T200), hFGFR1b-Fc amine-coupled to CM5 chip, antibody injected. How it is done:
(§2) The binding of antibodies to human FGFR2b or human FGFR1b antigen was determined by surface plasmon resonance (Biacore). Briefly, CM5 sensor chip (GE Healthcare Life Sciences) was firstly activated by a 4 min injection of 1:1 freshly mixture of 50 mM N-hydroxysuccinamide (NHS): 200 mM EDC […]. Then hFGFR2b-Fc or hFGFR1b-Fc was immobilized to activated CM5 sensor chip using Amine Coupling Kit (GE Healthcare Life Sciences) and 1M ethanolamine as the blocking reagent. About 20-30 response units (RU, 1 RU represents the binding of 1 pg of protein per square mm) of antigen protein were captured.
(§3) Antibodies were diluted in HBS-EP+ running buffer (GE Healthcare Life Sciences) (10 mM HEPES, 150 mM NaCl, 3 mM EDTA, 0.05% surfactant P20, pH 7.4) and injected at serial concentration (0, 6.25, 12.5, 25, 50, 100, 150, 200 nM) and surface regeneration of the CM5 sensor chip were included in each running cycle. The association constant, dissociation constant were calculated with Biacore T200 evaluation software (version 1.0). […] In addition, Ab 26c is distinguished from the antibody FPA144 in terms of FGFR1b binding.
On the technique in general: In SPR one partner is held on a chip, and binding of the other changes the refractive index at the surface.

The target in test [3] is T2, recombinant human FGFR1b-Fc (R&D …). Description: SPR (Biacore T200), hFGFR1b-Fc amine-coupled to a CM5 chip, antibody injected at 0-200 nM. How it is done: as §2, §3
The target of test [4] is T3, human FGFR2b (beta)-Fc, human Fc fusion (human).
T3 construct: range 65-267; Made in 293F cells; The Biacore and Ab 26 ELISA text says only 'hFGFR2b-Fc' or 'FGFR2b'; also called hFGFR2b-Fc; human FGFR2b-Fc
Nature of the test: SPR (Biacore T200), hFGFR2b-Fc amine-coupled to CM5 chip, antibody injected. How it is done:
as §2, §3

The target of test [5] is T4, cynomolgus FGFR2b-Fc (ECD fused to murine Fc) (cynomolgus monkey).
T4 construct: also called recombinant cynomolgus FGFR2b-Fc; cyno FGFR2b
Description: ELISA, plate coated with cynomolgus FGFR2b-Fc, anti-human IgG HRP. Here is the method: as §1

Test [6] concerns the target T5, human FGFR2b, endogenous, on KATOIII gastric cancer cells (human, UniProt P21802-3 22-822). Description: cell-based or functional assay.
In test [7] the target is T5, human FGFR2b, endogenous, on KATOIII …. Description: flow cytometry on KATOIII cells. Here is the method: To confirm that the selected antibodies can bind to the endogenous forms of FGFR2b on the cell membrane, flow cytometry was performed using FGFR2b expressing KATOIII cells. All antibodies were prepared in PBS buffer with 10% donkey serum (Jackson Immunogen #017-000-121). 500,000 KATOIII cells were incubated with […] of different concentration of anti-FGFR2b antibody for 60 min at 4° C. Cells were washed twice and incubated in 100 μl of 10 μg/ml of 2nd IgG-Alexa488 antibody (Jackson Immunogen #709546149) for 30 minutes at 4° C. in the dark. Cells were washed three times and resuspended with wash buffer and analyzed on a flow cytometer.
In general terms: A flow cytometer gives signals particle by particle.

In test [8] the target is T3, human FGFR2b (beta)-Fc, human Fc fusion. Description: SPR (Biacore T200), hFGFR2b-Fc amine-coupled to a CM5 chip, antibody injected at 0-200 nM. How it is done:
as §2, §3

Test [9] concerns the target T6, rat/mouse FGFR2b ECD fused with murine Fc (rat).
T6 construct: also called recombinant rat/mouse FGFR2b-Fc; rat FGFR2b
Nature of the test: ELISA, plate coated with rat/mouse FGFR2b-Fc, anti-human IgG HRP. How it is done: as §1

The target in test [10] is T2, recombinant human FGFR1b-Fc (R&D …). Nature of the test: ELISA on HuFGFR1b.
Test [11] addresses T7, recombinant human FGFR4-Fc (R&D Systems) (human, UniProt P22455 22-369).
T7 construct: Bought from R&D Systems; not shown: human Fc of the bought fusion protein
T7 sequence (looked up): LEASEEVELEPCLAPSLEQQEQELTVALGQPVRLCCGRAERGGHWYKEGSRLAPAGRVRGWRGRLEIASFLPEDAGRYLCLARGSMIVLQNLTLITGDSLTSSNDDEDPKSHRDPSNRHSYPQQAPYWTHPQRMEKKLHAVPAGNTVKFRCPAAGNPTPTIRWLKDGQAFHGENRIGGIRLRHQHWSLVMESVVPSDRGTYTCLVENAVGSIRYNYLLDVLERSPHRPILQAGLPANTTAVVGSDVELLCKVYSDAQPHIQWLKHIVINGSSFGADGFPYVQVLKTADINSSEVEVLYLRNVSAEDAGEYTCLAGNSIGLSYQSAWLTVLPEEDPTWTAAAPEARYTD
Description: ELISA on HuFGFR4.

The target of test [12] is T8, recombinant human FGFR3b-Fc (R&D Systems) (human, UniProt P22607-2 23-377).
T8 construct: Bought from R&D Systems; not shown: human Fc of the bought fusion protein
T8 sequence (looked up): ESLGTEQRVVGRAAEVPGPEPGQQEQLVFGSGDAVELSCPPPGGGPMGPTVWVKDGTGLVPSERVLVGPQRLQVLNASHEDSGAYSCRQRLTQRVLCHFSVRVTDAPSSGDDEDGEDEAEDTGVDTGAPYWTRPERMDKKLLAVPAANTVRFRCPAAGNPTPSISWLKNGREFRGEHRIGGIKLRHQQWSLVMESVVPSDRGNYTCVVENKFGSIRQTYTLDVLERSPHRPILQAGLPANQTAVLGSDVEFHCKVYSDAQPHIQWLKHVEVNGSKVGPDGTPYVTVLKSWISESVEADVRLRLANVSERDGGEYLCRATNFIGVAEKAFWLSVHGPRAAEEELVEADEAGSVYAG
Description: ELISA on HuFGFR3b.

The target in test [13] is T3, human FGFR2b (beta)-Fc, human Fc fusion. Description: ELISA on HuFGFR2b.

A word on the EC50 (read off the curve): it is the concentration needed to bring the measured effect to its halfway point. A word on the Kd: it is the free concentration of one partner at which half of the binding sites on the other are occupied at equilibrium, for simple one-to-one binding. Broadly, the koff is the first-order rate constant of dissociation. A word on the kon: it is the second-order rate constant of association. In general, EC50 refers to the concentration that produces a half-maximal response. A higher EC50 goes with weaker potency.

T5 sequence (P21802 other isoform, or with tags, fused parts or gaps): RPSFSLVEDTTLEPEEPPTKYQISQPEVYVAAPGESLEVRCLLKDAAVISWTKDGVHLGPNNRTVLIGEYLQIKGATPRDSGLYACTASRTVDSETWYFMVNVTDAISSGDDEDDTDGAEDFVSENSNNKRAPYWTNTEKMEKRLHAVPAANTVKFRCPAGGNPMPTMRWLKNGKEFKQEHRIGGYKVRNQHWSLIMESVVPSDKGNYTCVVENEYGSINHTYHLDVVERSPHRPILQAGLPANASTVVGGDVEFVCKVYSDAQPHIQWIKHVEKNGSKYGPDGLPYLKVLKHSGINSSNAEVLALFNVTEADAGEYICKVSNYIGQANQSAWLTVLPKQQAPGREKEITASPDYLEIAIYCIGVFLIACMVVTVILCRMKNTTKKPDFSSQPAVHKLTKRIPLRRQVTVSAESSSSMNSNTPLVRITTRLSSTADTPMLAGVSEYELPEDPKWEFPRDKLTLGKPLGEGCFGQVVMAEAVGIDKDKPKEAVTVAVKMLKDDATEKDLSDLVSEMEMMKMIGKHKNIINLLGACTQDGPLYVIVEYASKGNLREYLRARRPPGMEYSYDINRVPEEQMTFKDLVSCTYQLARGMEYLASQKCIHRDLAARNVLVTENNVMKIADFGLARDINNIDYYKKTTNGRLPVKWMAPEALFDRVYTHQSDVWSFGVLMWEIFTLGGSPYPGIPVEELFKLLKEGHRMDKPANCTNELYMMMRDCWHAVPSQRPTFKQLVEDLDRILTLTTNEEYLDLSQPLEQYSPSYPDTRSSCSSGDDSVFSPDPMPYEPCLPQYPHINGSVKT

B1: Ab 26c (chimeric antibody based on Ab 26) (antibody, V domains shown)
VH: DVHLQESGPGLVKPSQSLSLTCSVTGYSITSGYYWNWIRQFPGNKLEWMGYITYDGSNNYNPSLKNRLSITRDTSKNQFFLQLSSLTTEDTATYFCARVYYYGSGNFDVWGTGTTVTVSS
VL: SIVMTQTPKILLVSAGDRVTITCKASQSVSNDVAWYQQKPGQSPKLLIYYASNRYTGVPDRFTGSGYGTDFTFTISTVQAEDLAVYFCHQDHTSPFTFGSGTKLEIK
notes: Mouse VH and VL fused to a human heavy chain constant region and a human light chain constant region; also called chimeric Ab26c
As to B1, the “EC50 (read off the curve)” value is ~0.2 nM in test [1], ~0.6 nM in test [5] and ~0.2 nM in test [9]. Moreover, the Kd in [2] is 3.21 nM; in test [4], 1.68 nM. Further, the koff was found to be 0.000552 s⁻¹ in test [3] and 0.00017 s⁻¹ in test [8]. The kon was 172000 M⁻¹ s⁻¹ in test [3] and 101000 M⁻¹ s⁻¹ in test [8]. In test [6], the “ADCC EC50, KATOIII target cells with human NK effector cells (E/T 8:1)” value came to 0.034 µg/mL. For the same molecule, the EC50 in test [7] was ~3 nM.

B2: Ab 26 (mouse monoclonal antibody) (antibody, V domains shown)
VH: B1 VH
VL: B1 VL
notes: Mouse hybridoma antibody; also called mouse Ab 26
With B2, the “EC50 (read off the curve)” value in test [10] is ~0.1 nM; in test [13], ~0.08 nM. Besides, the binding result in test [11] and in test [12] was “no binding (tested: about 10^-7.3 M (about 5e-8 M))” throughout.
